In the nanobody polyreactivity screen of Harvey et al. (2022):

Experiment: yeast display, Sf9 membrane polyspecificity reagent, FACS + sequencing; frameworks hold sequencing errors
Outline: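 Nanobodies came from a synthetic yeast display library in Saccharomyces cerevisiae BJ5465, induced with galactose for 36–48 hours and stained for 1 hour at 4 °C with 10% biotinylated, detergent-solubilized Sf9 membrane reagent. Cells were enriched on streptavidin microbeads and then FACS-sorted, with low and high (top ~1%) gates set on anti-HA fluorescence for expression and streptavidin fluorescence for reagent binding. Each polyreactivity label reflects the gate a clone came from. Genes were amplified by colony PCR, sequenced by MiSeq 2 × 250 and filtered by CDR length.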

Sequence | polyreactivity (PSR sort gate)
QVQLVESGGGLVQAGGSLRLSCAASGIIFRSNAMGWYRQAPGKERELVAAISRTGRTYYADSVKGRFTISRDNAKNTVNLQMNSLKPEDTAVYYCAVGIVQRDSRYYYWGQGTQVTVSS | high polyreactivity
QVQLVESGGGLVQAGGSLRLSCAASGRIFAFYARGSSRQAPGKERQLVAVISKSGGTTYYADSVKGRFTISRDNAKNTVYLQMNSLKPEDTAVYYCNKRVFYRHGYSYNYWGQGTQVTVSS | high polyreactivity
QVQLVESGGGLVQAGGSLRLSCAASGLTFIYKAMAWYRQAPGKERELVAAISGNGGDTYYADSVKGRFTISRDNAKKTVYLQMNSLKPEDTAVYYCAADYAYTPITWDEYWGQGTQVTVSS | low polyreactivity
QVQLVESGGGLVQAGGSLRLSCAASGSTFEYYGMGWYRQAPGKERELVATITSGGSTNYADSVKGRFTISRDNAKNTVYLQMNSLKPEDTAVYYCAVDISNSLGGGFGYDYWGQGTQVTVSS | low polyreactivity
QVQLVESGGGLVQAGGSLRLSCAASGRNFSWNAMGWYRQAPGKERELVAAISRGASTNYADSVKGRFTISRDNAKNTDYLQMNSLKPEDTAVYYCNAVGPSLIYTYELSPTFDYWGQGTQVTVSS | low polyreactivity
QVQLVESGGGLVPAGGSLRLSCAASGFIFRYNTMGWYRQAPGKERELVAAITSGDSTYYADSVKGRFTISRDNAKNTVYLQMNSLKPEDTAVFYCAAAAYDSNGRYYYWGQGTQVSVSS | high polyreactivity
QVQLVESGGGLVQAGGSLRLSCAASGGTFNTYAMGWYRPAPGKERELVAAITSSGGSTFYADSVKWRFTISRDNAKNTVYLQMNSLKPEDTAVYYCAAKSYWTIVYRHPGYYYWGQGTQVTVSS | low polyreactivity
QVQLVESGGGLVQAGGSLRLSCAASGRTFPGYAMGWYRQAPGKEREVVAGISYRGGSTYYADSVKGRFTISRDNPKNTVYLQMNSLKPVDTAVYYCARDYSRHKGDYWGQGTQVTVSS | low polyreactivity
QVQLVESGGGLVQAGGSLRLSCAASGRIFRSNAMGWYRQAPGKERELVAAINYRGDRTYYADSVKGRFTISRDNAKNTVYLQMYSLKPEDTAVYYCNARRYSIPVSAGGYDSWGQGTQVTVSS | high polyreactivity
QVQLVESGGGLVQAGGSLRLSCAAYGRIFRYYAMGWYRQAPGKERELVAGISWRGSSTYYADSVKGRFTLSRDNAKNTVYLQMNSLKPEDTAVYYCNRDQSNIPVTGVRFYYWGQGTQVTVSS | high polyreactivity
QVQLVESGGGLVQAGGSLRLSCAASGYIFKYYAMGWYRQAPGKERELVTAIRSNDDSTYYADSVKGRFTISRDTAKNTVYLQMNSLKPEDTAVYYCAAATYGTRLRRYYYWGQGTQVTVSS | high polyreactivity
QVQLVESCGGIVQAGVSLRLSCAASGSIFGIYAMGWYRQAPGKERELVAAIDSSGTSTYYADSVKGRFTISRDNEKNTVYLQMNSLKPEDTAVNSSAAYHRISKNNYWGQGTEVTVSS | low polyreactivity
QVQLVESGGGLVQAGGSLRLSCAASGFTFWPYTMGWYRQAPGKERELVAVISSSGGSTYYADSVKGRFTISRDNAKNTVYLQMNSLKPEDTAVYYCNARRRYGHVDYWGQGTQVTVSS | high polyreactivity
QVQLVESGGGLVQAGGSLRLSCAASGSIYAINVMGWYRQAPGKERDFDAAISVRSGSTYYADSVKGRITISRDNAKNTVYLQMNSLKPEDTAVIYCAARTSRFWRGGGLDYWGQGTQVTGSS | high polyreactivity
QVQLHESGGGLLQAGGTLRLSCAASGTISYAGPMCWYRQSPGKEREFVAGIGVGSNTNYADSVKGRYTIIRDNAKNTVYLQMNSLKPEDTAVYYCAVGGFAPLGRPYWGQGTQVTVSS | low polyreactivity
QVQLVESGAGLVQAGGRLRLSCAASGSTFGYYAMGLYTQAPGTERELVAVITTRVGSTYYADSVKGRFTISRDNAKNTVYLQMNSLKPEDTAVYYCNASGRTRSYSGSFSKHYYWGQGTKVTVSS | high polyreactivity
QVQLVETGGGLVQAGGSLRLSCADSGSIYQKNAMGWYRQPPGKERELVAAITSGGTTYYADSVKGRFTISRDNAKNTVYLQMYSLKPEDTAVYYCAKYHCRLSFSRYPYDYWGQGTQVTVSS | high polyreactivity
QVQLVESGGGLVQAGGSLRLSCAASGIIFISYDMGWSRQAPGKERELVARINWDGGSTYYADSVKGRFTISRDNAKNTVYLQMNSLKPEDTAVYYCAAGFVGTNYPVLGFSYEYWGQGTQVTVSS | low polyreactivity
QVQHVDSGGGLVQAGGSLRLSCAASGIYVVYAMGWYRQAPGKERELVAAISSGVSTTYADSVKGRFTISRDNAKNTVYLQMNSLKPEDTAVYYCNTLWGHHYIVPYRTREFYYWGQGTQVTVSS | low polyreactivity
QVQLVESGGGLVQAGGSLRLICAASGSTFVSNAMGWYRQAPGKERELVAAITVSGGRTYYADSVKGRFTISRDNAKNTVYLQMNSLKPEDTAVYYCAAQIYGKYDYWGQGTQVTVSS | low polyreactivity
QVQLVESGGGLVQAGGSLRLSCAASGRTFRYNDMGWYRQAPGKERELVAAITYTADRTYYADSVKGRFTISRDNAKNTVYLQMNSLKPEDTAVYYCNAAYGRRVTFRPYYWGQGTQVTVSS | high polyreactivity
QVQLVESGGGLVQAGGSLRLSCAASGRTFPPYAMGWYRQGPGKERELVASIRRGGSTHYADSVKRRFTISRDNAKNTVYLQMNSLQPEDTAVYYCAAYYGGWSTYGAGYGGFYYWGQGTQVTVSS | high polyreactivity

Sequence | polyreactivity (PSR sort gate)
QVQLVESGGGLVQAGGSLRLSCAASGGIFVSYAMGLYRQAPGKERELVARINSVDGTNYADSVKGRFTISRDNAKNTVYLQMNSLKPEDTAVYYCAVRSPVLASDYGYYFLRDYWGQGTQVTVSS | low polyreactivity
QVQLVESGGGLVQAGGSLRLSCDASGGTFYVNHMAWYRPAPWKERELVATITYSGTSTYYADSVKGRFTISRDNAKNTVYLQMNSLKPEDTAVYYCATDVLLYFEPVNLDYWGQGTQVTVSS | low polyreactivity
QVQLVESGGGLVQAGGSLRLSCDASGIIFAWYAMGWSRQAPGKERELVAAISSDGITKDADSVKGRFTISRDNAKNTVYLQMNSLKPEDTAVYYCAAGLGWGLYWIDSYEYWGQGTQVTVSS | low polyreactivity
QVQHVESGGGLVQAGGSLRLSCAASGLIFWLNAMGWYRHEPGKEREMVATITAGGDDTNYADPVKGRFTISRDNAKNTVYLQMNSLKPEDTAVYYCAKSRTRSGHYGYDYWGQGTQVTVSS | low polyreactivity
KVQLVESGGGLVQAGGSLRLSCAASGSTFAGNALGWYRKAPGKERELVAAIDSSTGSTYYADSVKGRFTISRDNAKNTVYLQMNSLKPEDTAVYYCNKTSLLVKLDYWGPGTQVTVSS | low polyreactivity
QVQLVESGGGLVQAGGSLRLSCAASGSIFDTNAMGWYIQAPGKEREFVGTITNSGGRTYYADSVKGRFTISRDNAKNTVYLQMNSLKPEDTAVYYCNADVHRFSGNGYRYYYWGQGTQVTVSS | low polyreactivity
QVQLVESGGGLVQAGGSLRLSCAASGSIISFNTMGWYRQPPGKEREFVASIRRRGGSTYYADSVKGRFTISRDNAKNTVYLQMNSLKPEDTAVYYCAKANPHYVISDGVYHPRGGYWGQGTQVTVSS | low polyreactivity
QVQLVESGGGLVQAGGSLRLSCAASGRTFYYYAMGSYRQAPGKEREFVAAITTRGGSTYYADSVKGRFTISRDNAKNTVYLQMNSLKPEDTAVYYCAARSYYQGGYYYWGQGTQVTVSS | high polyreactivity
QVQLVESGGGLVQAGGSLRLSCAASGLTFSLYAMAWYRQAPGNESELVAANSWTGGSTYYADSVKGRFTISRDNAKNTVYLHMNSLKPEDTAVYYCNARYTLFARYGYDYWGQGTQVTVSS | low polyreactivity
QVQLVESGGGLVQAGGSLRLSCAASGFIFYYAMGWYRQAPGKERELVAGITESDGSTNYADSVKGRFTISRDNAKNTVYLQMNSLKTEVTAVYYCAKDASSLRFDYWGQGTQVTVSS | low polyreactivity
QVQLVESGGGLVQAGGSLRLSCAASGRILYWYAMGWYRQAPGKERELVAGIDWSGGSTYYADSVKGRFTISRDNAKNTVYLQMNSLKPEDTAVNYCNAVQNRGRGSHRGESTYYYWGQGTQVTVSS | low polyreactivity
QLQLEESGGGLVQAGGSLSLRCAASGRIFSRYPMGWYRQAPGKERELVAAISSRAGSTYYADSVKGRFTISRDNAKNTVYLQMNSLKPEDTAVYYCNNPSYSCSSPYDHWGQGTQVTVSS | high polyreactivity
QVQLVESGGGLVQAGGSLRLSCAASGFIFGGYAMGWYRQAPGKERELVAAISRSGGSTYYADSVKGRFTISRDNAKNTVYLQMNSLKPEDTAVYYCAAKFWPEDHRMDYWGQGTQVTVSS | low polyreactivity
QVQLVESGGGLVQAGGSLRLSCAASGRIFGRNAMGWYRQAPGKERELVAAIRLSGGSTYYADSVKGRFTISRDNAKNTVYLQMNSLKPEDTAVYYCATRPVANGRKYDYWGQGTQVTVSS | high polyreactivity
QVQLVESGGGLVQAGGSLRLSCAASGSTFPYYAMGWYRQAPGKERELVAAITSGGSTNYADSVKGRFTISRDNAKNTVYLQMNSLKPEDTAVYYCAADFALPNALPEYDYGAFDYNYWGQGTQVTVSS | low polyreactivity
QVQLVESAGGLVQAGGSLRLSCAASRRTFARYAIGRYRQAPGQERELVAALSRSGTCTYYADSVLGRFTISRDNAKNTVYLQKNSLKPEDCAVYYCAVDAYLGHYDYWGQGTQVTVSS | high polyreactivity
QVQLVESGGGLVQAGGSLRLSCAASGSIFGGYAMGWYRQAPGKERELVAAISKTGGTTYYADSVKGRFTISRDNAKNTVYLQMNSLKPEDTAVYYCNAPKRYSGSAYGYGYWGQGTQVTVSS | high polyreactivity
QVQLVESGGGLVQAGGSLRLSCAASGSTFRANAMGWYRQAPGKERELVAAISQSGGITYYADSVKGRFTISRDNAKNTVYLQMNSLKPEDTAVYYCAALGYRIKRGRFYYWGQGTQVTVSS | high polyreactivity
QVQLVESGGGLVQAGGSLRLSCAASGSIFYIYAMGWYRQAPGKERELVAAINWSGGDTYYADSVKGRFTISRDNAKNTVYLQMNSLKPEDTAVYYCAALLDSEYEYWGQGTQVTVSS | high polyreactivity
QVQLVESGGGLVQAGGSLRLSCAASGNTFYGYAMGWYRQAPGNERELVASITLSGDSTYYADSVKGRFTISRDNAKNTVYLQMNSLKPEDTAVYYCAGVYTYPLGYYHDTYDYWGQGTQVTVSS | low polyreactivity
QVQLVESGGGLVQAGGSLRLSCAASGSIFVRYATMGWYRQAPGKERELVAAISRSGGSTYYADSVKGRFTISRDNAKNTVYLQMNSLKPEDTAVYYCANVSPSLRASGYDYWGQGTQVTVSS | high polyreactivity
